Data reported in doi:10.1101/2022.07.08.499339 (bioRxiv, 2022).

Key:
[1] = biological target: hMIGA2_(long)-6xhis (human) (UniProt Q7L4E1); experiment: native MS
SEC = biological target: the molecule itself; experiment: SEC

stoichiometry N [1]	Molecule	stoichiometry N (SEC)
2	hMIGA2_(long)-6xhis (from UniProt Q7L4E1 170-593) (domain or fragment)	
	CeMIGA2_(long), C. elegans MIGA (106-496) (domain or fragment, UniProt Q21096 106-496, looked up) SMNPIEADITSGQELCTELRKTIEKVHHNLEMVKNRSSKDMERSIKIEGILKGLKQVEDEIVLLVPQMEDFRDDNMEFYSVSGGSGYAGSVRTGRSRTLSVLSDDSFRSAVEEFACDIDDIDFVSDAANLDKNELRFLDEGMQAALNGEVKYRKSRMEFCKCDSETDFAAKLYCVRQALTNALKDEHKRVWLAKCGRTLLADFIRHTKQDPVKFFNAYDEMLEYVSNDRNEEQLRQDVEGRGVCETGFYDVAIDFIILDAFEDLKSPPSAVYSVTKNYFMSMSMKYSTLNTIIWSIIKSKRQRLKNPDGFIAKFYNISETVMPAITLGFLGTDERLGELCQYFKEQVVQFVLDVFNTQKVCYRSLEEMSEDVWIVMRNRLEAVQTRMSNEL	2
